Data from the domain aggregation screens of Martell et al. (2025).

Experiment: soluble fraction after stress (log2 fold change); higher = more stays soluble; pooled small domains, quantitative proteomics
Conditions: stress: 75 degC
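Further: 20 min heating vs room temperature control held 20 min.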

Row | Sequence | soluble fraction (log2)
1 | HMVFRFELQPSSATPLYRQIVEQVTRAVAAGVLRDGEELPSVRAVAQEYVINPMTVSKAYSLLEAQSI | -0.366
2 | HMVFSNLGSRGEEVRQIQTKLKELGYLQGNVDGIYGNQTKQAVTAFQRDHGLSADGIAGEKTLAALGIG | 0.636
3 | HMVGAEDISKPMNLGALMRTAHAFGASFFFTINAHPKVRHAYNSDTSRSFDHMPYYPWDTMEE | 0.151
4 | HMVGDLPPQELRVFELIGDGLSNREIADEMILAEKTIKNYVTSLLQKLGMQRRTEAAAFAARLDER | -0.0289
5 | HMVGDMLTQKDSEGLTAYLYQQGIISQREMLLLNGILKDRVLTGMEKGQRDSVRASMVQHLLAMLNMM | -1.94
6 | HMVGEQISYIPLKFATASEVVKSLTSMFQQQKGIAPIRIVAEERTNAILLLASEADTARVKNLIAMMDKGV | -2.15
7 | HMVGGIAIGQFNVPRGSVKVTAGGRLLQEGLDYTVNYQAGRVQILDESLKNSNVPIEISTESNS | 0.106
8 | HMVGMDRYFKIKNIKDSSAAFERDYILHFLKENDWMVSKTAQMIGLERTTLYKKIKQLGLASMLEN | -3.24
9 | HMVGQIISNARKQEKMTQSELAEKVGTNKTYISRIEKGVIEPGVGLFFRIIDALGLKIEIVKP | -2.07
10 | HMVHSEDLQDHKYVSQLGEVFLKENPNYENIKKSWGDHMVVIKKFGRYPHRNKILNRKSTPEELEFLKG | -0.0435
11 | HMVILPGEKMVVKIVQPGKEKGQGVGYLADGTMIVVDSGDKMIGQDVPTEITRVFQTVAGKMLFAVPVD | -0.73
12 | HMVIMDLIVNGEPKYVVGEQLHLILDELGYSGKHFVVELNGEILSKEAYTTTKLTAADRLEIVSFVGG | -3.23
13 | HMVITATYTDFMDALEADEVKQVQFSSTEINYTIEKGGHVQYFKTGVVDNPQLPQILREKGVTYAAEIP | -0.512
14 | HMVITDPFFLEPENLVKDAVALMEKYRISGVPITKKGKLVGILTNRDLRFESNYEQPIANVMS | 0.137
15 | HMVITISEADVSGTYTKSITQGDWKYIRTWTPFEDERLYDLAKDPMELRDLAPAAPSKLAELRELLSALVS | -1.4
16 | HMVIVMRKDADAASIEKVVSEVKSRGFMPHVSEGESRTLIGAIGPAPTEELREHFAGLAGVETVVRITK | -0.533
17 | HMVKDIEFSLPLEQDYYKVLISVKDSQGKRQVYEELHRAGDTVYAAVRYYGSGELEIHLNGKFYKTIK | -0.868
18 | HMVKDLEIETIRLNNLLASDAEEVLKSLGGAKPTYKAVAVPGSNSLVIEGTKADLIKLKSIINALEDGS | 0.00865
19 | HMVKETNYSFFLKQIDAGTVEQVQIEDTEIKFKVSTADGKEQVYSTVRVEDPDLVDRLYSKGNIDFTGN | -0.0797
20 | HMVKIIHYEVYANRGDGWKLVDQFSADQRQEAVNLAKEIETEDQVAVKIIREIFDVQDNTYQESVEYIG | -1.59
21 | HMVKLDDLTGQDKATAEATITNSGLKYSEQQEFSDEVEAGKVIRTDPGAGTSSLKAGDTVTVYVSRGPEN | 0.215
22 | HMVKNYYEILEVDKKASPEVIEKAYKTLAKKYHPDLQEAENNGQYEEKMKEINEAYSVLSDEFKRRTYDEQ | 0.123
23 | HMVKSYEVPDVSNLTVLEAEAKLQEMGFEIDEEQKEISSSDIESGRVVKTSPQAGSKRKEGAIITLYVSSG | 0.65
24 | HMVKTANVAYSEFLKLVESDNISDVSIVGRTITGHLDDGTKFSTYTPPNDPSLIDKLTRKNVIIKSAPE | 0.0585
25 | HMVKVEVKPNVLQWVIKRMDNFDRLKDQFPNIDKWINQESQPTLKQLEKLAKMTAVPLGYFFLPNPPEEK | -1.12
26 | HMVLELRIGQIVRGVLLQLVGEREGIVSVGGVPVRARLEAEIPLGRGVMLQVQPGSDANNILLKPV | -3.01

Row | Sequence | soluble fraction (log2)
27 | HMVLENLKKFIDSKGISVSAFEKSIGMSNNSFRKSLNSGGHIGSDKLENILKIYPELNPVWLLQGEGEML | -0.589
28 | HMVLGSSVAMGQKIGDSDLTWVEVPLSSAFDRFLSEPEWRGSSDLVAARLLEAGVFLTEDDVVE | 0.0533
29 | HMVLLGAAIRELRIQKGITIEELAEMSGLSTGLISKIERDLGNPSISSLRKISRALGVPTAFFFA | -3.28
30 | HMVLSKGAKELLDFIMREGEVTTSKVVQKFGGSAQNASAKLKKLYATGLILGSKAVAESGGLEFVYKA | 0.256
31 | HMVLSVRERMGIVLEKVNTETFTDFKELFTVEEGRAGAIVSLLAILQLMKDSLIQLVQNEPNGPIYVKAA | -0.879
32 | HMVLTSFHDNFPKTGTTYTVRSGDTISGIATKFGSTRDWIQNANEISHPKYLQVGRTLFIPH | -0.302
33 | HMVMATPHNTAKAGDIAKTVIMPGDPLRAKYIADNYLDNAVQFNVVRNIYGYTGVYRGTDISVMASGM | 0.212
34 | HMVMETLAERINTALQTKGLSVNALARRVGVSYPAMRKITKGETLNPKFLFEIAEALGVSVEWLKTGEGSP | -1.34
35 | HMVMNKQEFLKILRDTLQSQLSSRETENHVEYYRTYIEEQMREGKTEIEILDVLGDPRLIARTILET | -0.193
36 | HMVMSTDAELILEYLAKHQGEMEITDKSSPELIMDTFNMSKGAFKRALGSLYKSKTVVIESTKVLLNT | -1.44
37 | HMVNDQSIYASEGYVHIRSGKPVSLRIYTILGALYRHEERLVGDHVIALPRGLYIVVLNHTAKKIMV | -0.657
38 | HMVNEALDEFFVGLKNLYESATGKPAIAGAHFDGEPKTDFEKLMYLGYQIIRPAQAYPSALKAYERAIARS | -0.145
39 | HMVNHEERKRLIAEATWRTISHVGIEQASVRTIAKEAGLSLGALRYYFTTQEELLRFSMQLVQERV | -0.0767
40 | HMVNIEAEVGRRLRQLRARRGLSLRALADLSGLNVNTLSLIENSKTSPSVSTLQQLARSLQVPITTFFESD | -1.36
41 | HMVNKQERTYTILRDRIHSGSFAPLERLNIDALARELGVSPIPVREALRRLEAEGWVRFTPNVGAVVSP | -0.509
42 | HMVNLLVTPLEELEINFRTLRALRKYNIYQLEDLLRFIKYNGFDALRIVPGMGIKSTEQLYEKLKDKNI | -0.112
43 | HMVNTVEVQGNTIYSAEEIRSASGIQKGDNLFTLNKEAAAGSIKASLPYVETVSIIRFLPDKIVIEVKE | -0.57
44 | HMVNVLKNSTVIDLVKNNLSDALIISLIRRAKVDFSLMTDDVIELSGKGVSPAVIMEMRQAMIRQASEIQN | -0.318
45 | HMVNVTEAIDLENGTGKLSGTFNHEPKSAEEIIFLLKIDTNKWKLSQYWNKQMGDHWRVSALISQI | -2.82
46 | HMVPAMEVALEDARRAIEQVVSGERTSVQLSSQEAMIRKLQHQMAKDANLFSRSSGVEPQRRVTIYTN | 0.0142
47 | HMVPHQPRVWTNTAGKTITAAFVRFNAAGRKVSLKLEKGRQVELPLASLSGNDVDWIKEHVPEAMSNQE | -1.06
48 | HMVPISGADFEKLSDYILQKAGAGSIQVKELLAGLKGMHEKNLWKAIDYLLAEEKIRIDKGGNISVK | -0.322
49 | HMVPQAVQDIKAYLASGALPYIGPATAKKIVAMFGSDALDVIAEHPEQLTAIRGLNEEKANAIHQEFRRQF | -0.259
50 | HMVPSSHNIAQKVKQIKINDLWLDVRERYIYLKNLYLSHPLEKDHPSFIVYVEAVNQIYNQYF | -0.0707
51 | HMVQDDLRELEGISTELLAKLADAGITNRDDLADLAIDELVAITGQSEDDAKALIMKAREHWFAGDA | 0.0246
52 | HMVQIIQLQGTDKRLYELVAPLVMNPEILKQNYNYPFRTSEDFVWFVAVDKKKVIGFIPVEEKKKEYVI | -0.108

Row | Sequence | soluble fraction (log2)
53 | HMVRKGEINFDQLSVRARNALRNMNILFEKEILKLTEYDLKSIPNLGVKTTNELLSYIKRLQTNQKEE | -1.47
54 | HMVRRSERLHALTESLRRSGNRGRTAEQLATEFEVSVRTIKRDLVALEASGLPLWSRPGPGGGYGLLS | -0.953
55 | HMVRTIKILGIKHNINLYYKNVKVPTMNVKNQTLEIILPNKYKKFQEEQILKVLTQKLYDKIAETEIEKIK | -1.11
56 | HMVSAEQNTLEFIKENVKEDVIEDDIEFYKSLLEDWSVEVDNSSKLLDPGNNNSLLAVIAYSIENEL | 0.232
57 | HMVSDAWITGKVKSQLLADDVTPGMKIDVDTEDRIVSLKGTVPSLTARNEAIRIASHTKGVRTVDADELIV | 0.17
58 | HMVSFAEQASDWLAHFDRLGDVGPDTTLTDLTARDAEFSAWVNEGIHHRVAFLETLAAWHRTER | -0.627
59 | HMVSGLEILKIQVQDHPSDWRWALLLARTHYENGNREAAVRTLRPLQRLHPDRLEVMTLWALLA | -0.194
60 | HMVSGSPTVDILMQRGLEYQQQENLEAARDAFDRAINLKPDYAEAWNRRAVLFFNEGKYDEAIADLETAIT | 0.136
61 | HMVSKEELANSIYENKTADELGNIVLRKGKYSGEMLRTIYVKDIGYLEWHSKQSYEYSNAVKWYLKKLE | -1.37
62 | HMVSLEEIINDLTSRIQTAVKMRFSDFVQNRKERVGVIVSFLGMLELVKQGIIDIKQEGHFADIEMETA | -0.347
63 | HMVSLSENQKIVLESLNTAMSARELMEILNLSDISHFRRNILNPLLLEGLIVRTKPDKPKSSKQKYIKANF | -1.69
64 | HMVSPEVEMLRAAVETMSERQKQVYELHYLRGFNVKETAAILGMSSPTVTAHKKRIMEIIKKFFE | -1.46
65 | HMVSPFQQQIADKVHNEIIAAKFNYDNATNENERLLAQLQAKKARELANQYGLDMSSYGADTTAERS | 0.61
66 | HMVSSAEQQARDKESGMILVQEAGGPDKARALVEKMRQDIRNPALDGTRRQMLRGHVARIELALAELETG | -0.0254
67 | HMVSVGDIFAGRIISNENGHLLLQLLDGSKISAQTVTDLKYNIGDVLNLEIIEEKQGLIFVRQT | -2.05
68 | HMVSVLGRRIKELRLQNSMTQMQLAKKLGYKGNSLVAGWELGKNYPSVSSIKRLSEIFDTDLMKYVG | -2.53
69 | HMVTDTGAIEKVIDEVIAANPKQVQEIADQRAAGHEKPKTLGWLVGQIMKASGGKVNPAAVNEILLKKLG | 0.0887
70 | HMVTFDEISQSLVRDVAARRSLSVQTLHAMVDRYNAGSSINAVANQYGIDRLKLREILIELGVHVAT | -2.4
71 | HMVTLQEVKQYLRIDFEEEDPLLLSLLATAKQQVMNVGRMDEAQLSEHEDTARTAILYAVSYLYENRN | -1.82
72 | HMVTPAQQARDTLLGALVGLARATTSEPKTDDTDVVLNAGLRLAAQPDAPEERLQRMLAIVQTEKHRV | 0.138
73 | HMVTVNAFGKSGPEPAAMTKEALAKGADEVRVIVDSPTAAASVRDFLIGAGLRVQLQDDEGQLIVVGEKK | 0.318
74 | HMVVDEQRIQTLVSAAEQNSSDPVPRVTLGNLYFDAEQFEEAVKWYEQALALDPRNVNVSTDLGVGYYY | 0.113
75 | HMVVKLTQEQDRFIKTFNDKSLAFYYISSWGWGSFLRNGIGGVYEGDKTPFTLDEKEKMLNAIINGYEVI | -2.02
76 | HMVVKSPLEMAFDKFREMRKKIRKPMTERAEELIWKELSKLAGEDSDLKIEILEQSIRNGWQDVYAVK | -0.623
